For this series, the system named is prolyl 4-hydroxylase. Put plainly: prolyl 4-hydroxylase activity of Triton X-100 extracts from insect cells (hydroxylation-coupled decarboxylation of 2-oxo[1-14C]glutarate). Type of series: biochemical. The conditions noted are these: Triton extract, 72 h after infection. The protocol: The 0.2% Triton X-100 extracts of cell homogenates were analyzed for prolyl 4-hydroxylase activity with an assay based on the hydroxylation-coupled decarboxylation of 2-oxo [1-^14C] glutarate (Kivirikko et al., Methods EnzVmol. 82: 245-304 (1982)). As reported previously (Veijola et al., J. Biol. Chem. 269: 26746-26753 (1994)), a significant level of prolyl 4-hydroxylase activity was found in both Sf9 and High Five cells, the activity in High Five cells being distinctly higher than that in Sf9 cells (Table I). […]
Insect cells (Sf9 or High Five, Invitrogen) were cultured in TNM-FH medium (Sigma) supplemented with 10% fetal bovine serum (BioClear) or in a serum-free HyQ CCM3 medium (HyClone) either as monolayers or in suspension in shaker flasks at 27° C. […] The remaining cell pellet that was insoluble in the homogenization buffer was further solubilized in 1% SDS and analyzed by SDS-PAGE^1. […] Aliquots of the supernatants of the cell homogenates and the concentrated cell culture medium were analyzed by denaturing SDS-PAGE, followed by staining with Coomassie Brilliant Blue or Western blotting with an antibody to the N-propeptide of human type III procollagen.

B1: Proα1 (III) chains: Triton X-100 extract of insect cells expressing only proα1 chains of human type III procollagen (protein, UniProt P02461 24-1466, looked up)
pro-form: QQEAVEGGCSHLGQSYADRDVWKPEPCQICVCDSGSVLCDDIICDDQELDCPNPEIPFGECCAVCPQPPTAPTRPPNGQGPQGPKGDPGPPGIPGRNGDPGIPGQPGSPGSPGPPGICESCPTGPQNYSPQYDSYDVKSGVAVGGLAGYPGPAGPPGPPGPPGTSGHPGSPGSPGYQGPPGEPGQAGPSGPPGPPGAIGPSGPAGKDGESGRPGRPGERGLPGPPGIKGPAGIPGFPGMKGHRGFDGRNGEKGETGAPGLKGENGLPGENGAPGPMGPRGAPGERGRPGLPGAAGARGNDGARGSDGQPGPPGPPGTAGFPGSPGAKGEVGPAGSPGSNGAPGQRGEPGPQGHAGAQGPPGPPGINGSPGGKGEMGPAGIPGAPGLMGARGPPGPAGANGAPGLRGGAGEPGKNGAKGEPGPRGERGEAGIPGVPGAKGEDGKDGSPGEPGANGLPGAAGERGAPGFRGPAGPNGIPGEKGPAGERGAPGPAGPRGAAGEPGRDGVPGGPGMRGMPGSPGGPGSDGKPGPPGSQGESGRPGPPGPSGPRGQPGVMGFPGPKGNDGAPGKNGERGGPGGPGPQGPPGKNGETGPQGPPGPTGPGGDKGDTGPPGPQGLQGLPGTGGPPGENGKPGEPGPKGDAGAPGAPGGKGDAGAPGERGPPGLAGAPGLRGGAGPPGPEGGKGAAGPPGPPGAAGTPGLQGMPGERGGLGSPGPKGDKGEPGGPGADGVPGKDGPRGPTGPIGPPGPAGQPGDKGEGGAPGLPGIAGPRGSPGERGETGPPGPAGFPGAPGQNGEPGGKGERGAPGEKGEGGPPGVAGPPGGSGPAGPPGPQGVKGERGSPGGPGAAGFPGARGLPGPPGSNGNPGPPGPSGSPGKDGPPGPAGNTGAPGSPGVSGPKGDAGQPGEKGSPGAQGPPGAPGPLGIAGITGARGLAGPPGMPGPRGSPGPQGVKGESGKPGANGLSGERGPPGPQGLPGLAGTAGEPGRDGNPGSDGLPGRDGSPGGKGDRGENGSPGAPGAPGHPGPPGPVGPAGKSGDRGESGPAGPAGAPGPAGSRGAPGPQGPRGDKGETGERGAAGIKGHRGFPGNPGAPGSPGPAGQQGAIGSPGPAGPRGPVGPSGPPGKDGTSGHPGPIGPPGPRGNRGERGSEGSPGHPGQPGPPGPPGAPGPCCGGVGAAAIAGIGGEKAGGFAPYYGDEPMDFKINTDEIMTSLKSVNGQIESLISPDGSRKNPARNCRDLKFCHPELKSGEYWVDPNQGCKLDAIKVFCNMETGETCISANPLNVPRKHWWTDSSAEKKHVWFGESMDGGFQFSYGNPELPEDVLDVHLAFLRLLSSRASQNITYHCKNSIAYMDQASGNVKKALKLMGSNEGEFKAEGNSKFTYTVLEDGCTKHTGEWSKTVFEYRTRKAVRLPIVDIAPYDIGGPDQEFGVDVGPVCFL
modifications: pro-form
notes: Triton X-100 extract of insect cells expressing only proα1 chains of human type III procollagen
As for B1, the “Prolyl 4-hydroxylase activity” value runs as follows: (High Five cells, mean of duplicates in three experiments) 500 dpm/10 μl; (Sf9 cells, mean of duplicates in one experiment) 60 dpm/10 μl.

The values are drawn from patent US20050164345A1, “Synthesis of human procollagens and collagens in recombinant DNA systems” (priority 1992, published 2005).
